# Molecular target: FGF receptor/BKL complex on HEK293 cells overexpressing human beta-klotho (BKL) (human) (UniProt Q86Z14)
# Assay: cell-based or functional assay
# Chain of FGF receptor/BKL complex on HEK293 cells overexpressing human beta-klotho (BKL) (human) (Q86Z14 whole entry, one chain of several): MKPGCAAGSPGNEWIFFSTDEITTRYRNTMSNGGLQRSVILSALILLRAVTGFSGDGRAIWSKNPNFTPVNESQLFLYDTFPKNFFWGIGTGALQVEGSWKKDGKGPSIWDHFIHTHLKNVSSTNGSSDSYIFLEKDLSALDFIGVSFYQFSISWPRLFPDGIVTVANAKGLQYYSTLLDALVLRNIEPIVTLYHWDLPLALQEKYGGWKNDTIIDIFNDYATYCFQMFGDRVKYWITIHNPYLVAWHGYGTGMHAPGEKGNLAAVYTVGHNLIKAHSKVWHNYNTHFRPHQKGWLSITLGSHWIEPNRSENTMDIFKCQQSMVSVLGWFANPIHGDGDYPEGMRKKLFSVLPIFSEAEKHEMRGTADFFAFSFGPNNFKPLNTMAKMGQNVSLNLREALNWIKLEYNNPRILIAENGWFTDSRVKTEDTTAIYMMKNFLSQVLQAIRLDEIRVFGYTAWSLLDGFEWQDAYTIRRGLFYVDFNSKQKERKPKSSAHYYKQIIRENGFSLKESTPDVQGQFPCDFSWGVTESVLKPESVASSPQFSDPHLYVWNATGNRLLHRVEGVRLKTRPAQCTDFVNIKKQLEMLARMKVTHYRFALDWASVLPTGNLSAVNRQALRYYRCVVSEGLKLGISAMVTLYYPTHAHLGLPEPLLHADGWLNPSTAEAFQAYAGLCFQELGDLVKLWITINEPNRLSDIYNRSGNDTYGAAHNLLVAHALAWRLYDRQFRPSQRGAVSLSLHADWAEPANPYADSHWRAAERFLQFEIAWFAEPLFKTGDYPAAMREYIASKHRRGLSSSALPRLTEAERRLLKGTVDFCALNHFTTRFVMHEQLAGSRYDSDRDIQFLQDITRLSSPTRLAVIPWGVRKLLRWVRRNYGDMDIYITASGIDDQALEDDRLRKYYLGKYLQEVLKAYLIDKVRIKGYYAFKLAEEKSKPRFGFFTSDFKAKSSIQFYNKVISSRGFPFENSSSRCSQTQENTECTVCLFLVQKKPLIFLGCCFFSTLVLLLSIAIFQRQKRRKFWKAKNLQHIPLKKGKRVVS
# Chain of 4-[10-[[(1S)-4-[2-[2-[2-[2-[2-[2-[[(1S)-5-acetamido-1-carboxy-pentyl]amino]-2-oxo-ethoxy]ethoxy]ethylamino]-2-oxo-ethoxy]ethoxy]ethylamino]-1-carboxy-4-oxo-butyl]amino]-10-oxo-decoxy]benzoic acid]-Ala (Q9NSA1 other isoform, or with tags, fused parts or gaps limits assumed): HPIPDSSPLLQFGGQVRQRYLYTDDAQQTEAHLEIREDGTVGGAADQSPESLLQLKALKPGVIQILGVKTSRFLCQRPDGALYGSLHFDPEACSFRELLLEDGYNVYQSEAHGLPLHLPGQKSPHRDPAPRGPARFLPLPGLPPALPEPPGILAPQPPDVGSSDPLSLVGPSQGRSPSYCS
Substance,"EC50 (0.1% HSA) (nM), pERK, HEK293/BKL cells","EC50 (nM), pERK, HEK293/BKL cells"
"4-[10-[[4-[2-[2-[2-[2-[2-[2-[[(1S)-5-acetamido-1-carboxy-pentyl]amino]-2-oxo-ethoxy]ethoxy]ethylamino]-2-oxo-ethoxy]ethoxy]ethylamino]-4-oxo-butyl]sulfonylamino]-10-oxo-decoxy]benzoic acid-Ala[Gln121,Leu168,Cys181]FGF21 (from UniProt Q9NSA1 29-208) (ligand)",132 nM,24.7 nM
"4-[10-[[4-[2-[2-[2-[2-[2-[2-[[(1S)-5-acetamido-1-carboxy-pentyl]amino]-2-oxo-ethoxy]ethoxy]ethylamino]-2-oxo-ethoxy]ethoxy]ethylamino]-4-oxo-butyl]sulfonylamino]-10-oxo-decoxy]benzoic acid]-Ala[Gln121,Leu168,Cys180]FGF21 (from UniProt Q9NSA1 29-209) (ligand)",4 nM,3.2 nM
"4-[10-[[(1S)-4-[2-[2-[2-[2-[2-[2-[[(1S)-5-acetamido-1-carboxy-pentyl]amino]-2-oxo-ethoxy]ethoxy]ethylamino]-2-oxo-ethoxy]ethoxy]ethylamino]-1-carboxy-4-oxo-butyl]amino]-10-oxo-decoxy]benzoic acid]-Ala[Gln121,Leu168,Cys180]FGF21 (from UniProt Q9NSA1 29-209) (ligand)",3 nM,5 nM
"4-[10-[[(1S)-4-[2-[2-[2-[2-[2-[2-[[(1S)-5-acetamido-1-carboxy-pentyl]amino]-2-oxo-ethoxy]ethoxy]ethylamino]-2-oxo-ethoxy]ethoxy]ethylamino]-1-carboxy-4-oxo-butyl]amino]-10-oxo-decoxy]benzoic acid]-Ala[Gln121,Leu168,Cys181]FGF21 (from UniProt Q9NSA1 29-208) (ligand)",138 nM,26.4 nM
"12-[[4-[[(1S)-4-[2-[2-[2-[2-[2-[2-(2-acetamidoethylamino)-2-oxo-ethoxy]ethoxy]ethylamino]-2-oxo-ethoxy]ethoxy]ethylamino]-1-carboxy-4-oxo-butyl]carbamoyl]cyclohexyl]methylamino]-12-oxo-dodecanoic acid-Ala[Gln121,Leu168,Cys180]FGF21 (from UniProt Q9NSA1 29-209) (ligand)",4.7 nM,4 nM
"12-[[(1S)-4-[2-[2-[2-[2-[2-[2-[[(1S)-5-acetamido-1-carboxy-pentyl]amino]-2-oxo-ethoxy]ethoxy]ethylamino]-2-oxo-ethoxy]ethoxy]ethylamino]-1-carboxy-4-oxo-butyl]amino]-12-oxo-dodecanoic acid-Ala[Gln121,Leu168,Cys180]FGF21 (from UniProt Q9NSA1 29-209) (ligand)",3.4 nM,8.4 nM
"12-[[(1S)-4-[[(1S)-4-[2-[2-[2-[2-[2-[2-[[(1S)-5-acetamido-1-carboxy-pentyl]amino]-2-oxo-ethoxy]ethoxy]ethylamino]-2-oxo-ethoxy]ethoxy]ethylamino]-1-carboxy-4-oxo-butyl]amino]-1-carboxy-4-oxo-butyl]amino]-12-oxo-dodecanoic acid-Ala[Gln121,Leu168,Cys180]FGF21 (from UniProt Q9NSA1 29-209) (ligand)",6.1 nM,7.9 nM
"16-[[4-[[(1S)-4-[2-[2-[2-[2-[2-[2-(2-acetamidoethylamino)-2-oxo-ethoxy]ethoxy]ethylamino]-2-oxo-ethoxy]ethoxy]ethylamino]-1-carboxy-4-oxo-butyl]carbamoyl]cyclohexyl]methylamino]-16-oxo-hexadecanoic acid-Ala[Gln121,Leu168,Cys180]FGF21 (from UniProt Q9NSA1 29-209) (ligand)",3.2 nM,3.5 nM
"16-[[4-[[(1S)-4-[2-[2-[2-[2-[2-[2-[[(1S)-5-[(2-acetamido]-1-carboxy-pentyl]amino]-2-oxo-ethoxy]ethoxy]ethylamino]-2-oxo-ethoxy]ethoxy]ethylamino]-1-carboxy-4-oxo-butyl]carbamoyl]cyclohexyl]methylamino]-16-oxo-hexadecanoic acid-Ala[Gln121,Leu168,Cys180]FGF21 (from UniProt Q9NSA1 29-209) (ligand)",2.1 nM,4 nM
"16-[[(1S)-4-[2-[2-[2-[2-[2-[2-(2-acetamidoethylamino)-2-oxo-ethoxy]ethoxy]ethylamino]-2-oxo-ethoxy]ethoxy]ethylamino]-1-carboxy-4-oxo-butyl]amino]-16-oxo-hexadecanoic acid-Ala[Gln121,Leu168,Cys174]FGF21 (from UniProt Q9NSA1 29-209) (ligand)",4 nM,2 nM
"18-[[4-[[(1S)-4-[2-[2-[2-[2-[2-[2-[[(1S)-5-[(2-acetamido]-1-carboxy-pentyl]amino]-2-oxo-ethoxy]ethoxy]ethylamino]-2-oxo-ethoxy]ethoxy]ethylamino]-1-carboxy-4-oxo-butyl]carbamoyl]cyclohexyl]methylamino]-18-oxo-octadecanoic acid-Ala[Gln121,Leu168,Cys180]FGF21 (from UniProt Q9NSA1 29-209) (ligand)",14 nM,4 nM
"18-[[(1S)-4-[2-[2-[2-[2-[2-[2-(2-acetamidoethylamino)-2-oxo-ethoxy]ethoxy]ethylamino]-2-oxo-ethoxy]ethoxy]ethylamino]-1-carboxy-4-oxo-butyl]amino]-18-oxo-octadecanoic acid-Ala[Gln121,Leu168,Cys170]FGF21 (from UniProt Q9NSA1 29-209) (ligand)",20 nM,1 nM
"18-[[(1S)-4-[2-[2-[2-[2-[2-[2-(2-acetamidoethylamino)-2-oxo-ethoxy]ethoxy]ethylamino]-2-oxo-ethoxy]ethoxy]ethylamino]-1-carboxy-4-oxo-butyl]amino]-18-oxo-octadecanoic acid-Ala[Gln121,Leu168,Cys174]FGF21 (from UniProt Q9NSA1 29-209) (ligand)",1 nM,1 nM
"20-[[4-[[(1S)-4-[2-[2-[2-[2-[2-[2-[[(1S)-5-[(2-acetamido]-1-carboxy-pentyl]amino]-2-oxo-ethoxy]ethoxy]ethylamino]-2-oxo-ethoxy]ethoxy]ethylamino]-1-carboxy-4-oxo-butyl]carbamoyl]cyclohexyl]methylamino]-20-oxo-icosanoic acid-Ala[Gln121,Leu168,Cys180]FGF21 (from UniProt Q9NSA1 29-209) (ligand)",35.5 nM,4 nM
"20-[[(1S)-4-[2-[2-[2-[2-[2-[2-[[(1S)-5-acetamido-1-carboxy-pentyl]amino]-2-oxo-ethoxy]ethoxy]ethylamino]-2-oxo-ethoxy]ethoxy]ethylamino]-1-carboxy-4-oxo-butyl]amino]-20-oxo-icosanoic acid-Ala[Gln121,Leu168,Cys180]FGF21 (from UniProt Q9NSA1 29-209) (ligand)",52.5 nM,6.1 nM
